Reference: paper PMC6551275 (Structure (London, England : 1993), 2019)
Changes are numbered by the printed parent chain. Names and notes keep the numbering of the source.

Tests used:
SEC = target: the molecule itself; test: SEC
AUC = target: the molecule itself; test: AUC
NMR titration = target: the molecule itself; test: NMR titration
Ubiquitin = Ubiquitin (UniProt P0CG48 1-76); test: NMR titration

B1: UBQLN2 450–624 P506A (domain or fragment)
chain: RAMQALMQIQQGLQTLATEAPGLIPSFTPGVGVGVLGTAIGPVGPVTPIGPIGPIVAFTPIGPIGPIGPTGPAAPPGSTGSGGPTGPTVSSAAPSETTSPTSESGPNQQFIQQMVQALAGANAPQLPNPEVRFQQQLEQLNAMGFLNREANLQALIATGGDINAAIERLLGSQPSW
Does B1 bind (SEC)?
Result: binds

B2: UBQLN2 450–624 P497L (domain or fragment)
chain: B1 chain with P48L, A57P
Does B2 bind (AUC)?
Result: binds

B3: UBQLN2 450–624 P509S (domain or fragment)
chain: B1 chain with A57P, P60S
Does B3 bind (NMR titration)?
Result: binds

B4: UBQLN2 450–624 A488T (domain or fragment)
chain: B1 chain with A39T, A57P
Does B4 bind (SEC)?
Result: binds

B5: UBQLN2 450–624 P500S (domain or fragment)
chain: B1 chain with P51S, A57P
Does B5 bind (NMR titration)?
Result: binds

B6: UBQLN2 450–624 P506S (domain or fragment)
chain: B1 chain with A57S
Does B6 bind (SEC)?
Result: binds

B7: UBQLN2 450–624 P497S (domain or fragment)
chain: B1 chain with P48S, A57P
Does B7 bind (AUC)?
Result: binds

B8: UBQLN2 450–624 (domain or fragment)
chain: B1 chain with A57P
Does B8 bind (Ubiquitin)?
Result: binds

B9: UBQLN2 450–624 P506T (domain or fragment)
chain: B1 chain with A57T
Does B9 bind (SEC)?
Result: binds

B10: UBQLN2 450–624 T487I (domain or fragment)
chain: B1 chain with T38I, A57P
Does B10 bind (AUC)?
Result: binds

B11: UBQLN2 450–624 P497H (domain or fragment)
chain: B1 chain with P48H, A57P
Does B11 bind (SEC)?
Result: binds
